In FireProtDB (doi:10.1021/bi9901228):

Details: Homo sapiens; pH 2.7; Thermal; DSC; glycine 0.05 M; reversible: yes; whole UniProt chain shown

B1: Lysozyme C wild type, P61626 (protein)
chain: MKALIVLGLVLLSVTVQGKVFERCELARTLKRLGMDGYRGISLANWMCLAKWESGYNTRATNYNAGDRSTDYGIFQINSRYWCNDGKTPGAVNACHLSCSALLQDNIADAVACAKRVVRDPQGIRAWVAWRNRCQNRDVRQYVQGCGV
Tm: 64.9 °C | heat capacity change of unfolding: 1.58 kcal/mol/K | unfolding enthalpy (calorimetric): 114 kcal/mol
